The data set can be described thus: total protein half-life in vivo (active degradation + dilution); higher = more stable protein.
The mark [1] stands for this setting: E. coli NCM3722 delta-clpP delta-lon delta-hslV, growth: N-lim chemostat, doubling time 6 h.
Where [2] appears, read: E. coli NCM3722 delta-clpP, growth: N-lim chemostat, doubling time 6 h.
Where [3] appears, read: E. coli NCM3722 delta-hslV, growth: N-lim chemostat, doubling time 6 h.
Where [4] appears, read: E. coli NCM3722 delta-lon, growth: N-lim chemostat, doubling time 6 h.
[5] abbreviates: E. coli NCM3722 delta-smpB, growth: N-lim chemostat, doubling time 6 h.
Where [6] appears, read: wild type E. coli NCM3722, growth: C-lim chemostat, doubling time 3 h.
[7] abbreviates: wild type E. coli NCM3722, growth: C-lim chemostat, doubling time 6 h.
[8] abbreviates: wild type E. coli NCM3722, growth: N-lim chemostat, doubling time 6 h.
Setting [9] is: wild type E. coli NCM3722, growth: N-lim chemostat, doubling time 12 h.
The mark [10] stands for this setting: wild type E. coli NCM3722, growth: P-lim chemostat, doubling time 6 h.
[11] abbreviates: wild type E. coli NCM3722, growth: P-lim chemostat, doubling time 12 h.
Setting [12] is: wild type E. coli NCM3722, growth: C-lim chemostat, doubling time 12 h.

± gives the standard deviation of the averaged measurements. Some results are limits rather than exact numbers.

Consider “MFLAQEIIRKKRDGHALSDEEIRFFINGIRDNTISEGQIAALAMTIFFHDMTMPERVSLTMAMRDSGTVLDWKSLHLNGPIVDKHSTGGVGDVTSLMLGPMVAACGGYIPMISGRGLGHTGGTLDKLESIPGFDIFPDDNRFREIIKDVGVAIIGQTSSLAPADKRFYATRDITATVDSIPLITASILAKKLAEGLDALVMDVKVGSGAFMPTYELSEALAEAIVGVANGAGVRTTALLTDMNQVLASSAGNAVEVREAVQFLTGEYRNPRLFDVTMALCVEMLISGKLAKDDAEARAKLQAVLDNGKAAEVFGRMVAAQKGPTDFVENYAKYLPTAMLTKAVYADTEGFVSEMDTRALGMAVVAMGGGRRQASDTIDYSVGFTDMARLGDQVDGQRPLAVIHAKDENNWQEAAKAVKAAIKLADKAPESTPTVYRRISE”, for which the “total protein half-life in vivo” value under setting [1] came to 5.35 ± 0.43 h; the “total protein half-life in vivo” value under setting [2] is 5.92 ± 0.45 h; the “total protein half-life in vivo” value under setting [3] came to 5.18 ± 0.25 h; the “total protein half-life in vivo” value under setting [4] worked out at 5.58 ± 0.26 h; the “total protein half-life in vivo” value under setting [5] turned out to be 5.29 ± 0.068 h; the “total protein half-life in vivo” value under setting [6] was 3.127 ± 0.0038 h. Moreover, the “total protein half-life in vivo” value was found to be 5.78 ± 0.25 h under setting [7]; 5.36 ± 0.13 h under setting [8]; 10.4 ± 1.3 h under setting [9]; 6.07 ± 0.16 h under setting [10]; 13.1 ± 1.6 h under setting [11].
With “MGTTTMGVKLDDATRERIKSAATRIDRTPHWLIKQAIFSYLEQLENSDTLPELPALLSGAANESDEAPTPAEEPHQPFLDFAEQILPQSVSRAAITAAYRRPETEAVSMLLEQARLPQPVAEQAHKLAYQLADKLRNQKNASGRAGMVQGLLQEFSLSSQEGVALMCLAEALLRIPDKATRDALIRDKISNGNWQSHIGRSPSLFVNAATWGLLFTGKLVSTHNEASLSRSLNRIIGKSGEPLIRKGVDMAMRLMGEQFVTGETIAEALANARKLEEKGFRYSYDMLGEAALTAADAQAYMVSYQQAIHAIGKASNGRGIYEGPGISIKLSALHPRYSRAQYDRVMEELYPRLKSLTLLARQYDIGINIDAEESDRLEISLDLLEKLCFEPELAGWNGIGFVIQAYQKRCPLVIDYLIDLATRSRRRLMIRLVKGAYWDSEIKRAQMDGLEGYPVYTRKVYTDVSYLACAKKLLAVPNLIYPQFATHNAHTLAAIYQLAGQNYYPGQYEFQCLHGMGEPLYEQVTGKVADGKLNRPCRIYAPVGTHETLLAYLVRRLLENGANTSFVNRIADTSLPLDELVADPVTAVEKLAQQEGQTGLPHPKIPLPRDLYGHGRDNSAGLDLANEHRLASLSSALLNSALQKWQALPMLEQPVAAGEMSPVINPAEPKDIVGYVREATPREVEQALESAVNNAPIWFATPPAERAAILHRAAVLMESQMQQLIGILVREAGKTFSNAIAEVREAVDFLHYYAGQVRDDFANETHRPLGPVVCISPWNFPLAIFTGQIAAALAAGNSVLAKPAEQTPLIAAQGIAILLEAGVPPGVVQLLPGRGETVGAQLTGDDRVRGVMFTGSTEVATLLQRNIASRLDAQGRPIPLIAETGGMNAMIVDSSALTEQVVVDVLASAFDSAGQRCSALRVLCLQDEIADHTLKMLRGAMAECRMGNPGRLTTDIGPVIDSEAKANIERHIQTMRSKGRPVFQAVRENSEDAREWQSGTFVAPTLIELDDFAELQKEVFGPVLHVVRYNRNQLPELIEQINASGYGLTLGVHTRIDETIAQVTGSAHVGNLYVNRNMVGAVVGVQPFGGEGLSGTGPKAGGPLYLYRLLANRPESALAVTLARQDAKYPVDAQLKAALTQPLNALREWAANRPELQALCTQYGELAQAGTQRLLPGPTGERNTWTLLPRERVLCIADDEQDALTQLAAVLAVGSQVLWPDDALHRQLVKALPSAVSERIQLAKAENITAQPFDAVIFHGDSDQLRALCEAVAARDGTIVSVQGFARGESNILLERLYIERSLSVNTAAAGGNASLMTIG”, the “total protein half-life in vivo” value under setting [1] was determined as 5.93 ± 0.7 h; the “total protein half-life in vivo” value under setting [2] worked out at 5.68 ± 0.72 h; the “total protein half-life in vivo” value under setting [3] came out at 2.39 ± 0.14 h; the “total protein half-life in vivo” value under setting [4] was 2.81 ± 0.3 h; the “total protein half-life in vivo” value under setting [5] was 2.34 ± 0.047 h; the “total protein half-life in vivo” value under setting [6] was found to be 2.08 ± 0.093 h. The “total protein half-life in vivo” value reads like this: under setting [7], 3.5 ± 0.57 h; under setting [12], 4.276 ± 0.022 h; under setting [8], 2.64 ± 0.23 h; under setting [9], 3.8 ± 0.28 h; under setting [10], 2.46 ± 0.32 h; under setting [11], 4.246 ± 0.04 h.
Take “MNYHQYYPVDIVNGPGTRCTLFVSGCVHECPGCYNKSTWRVNSGQPFTKAMEDQIINDLNDTRIKRQGISLSGGDPLHPQNVPDILKLVQRIRAECPGKDIWVWTGYKLDELNAAQMQVVDLINVLVDGKFVQDLKDPSLIWRGSSNQVVHHLR [P0A9N8]”: the “total protein half-life in vivo” value is, setting by setting: under setting [2], 1.08 h; under setting [12], 2.03 h.
Turning to “MIAELFTNNALNLVIIFGSCAALILMSFWFRRGNRKRKGFLFHAVQFLIYTIIISAVGSIINYVIENYKLKFITPGVIDFICTSLIAVILTIKLFLLINQFEKQQIKKGRDITSARIMSRIIKITIIVVLVLLYGEHFGMSLSGLLTFGGIGGLAVGMAGKDILSNFFSGIMLYFDRPFSIGDWIRSPDRNIEGTVAEIGWRITKITTFDNRPLYVPNSLFSSISVENPGRMTNRRITTTIGLRYEDAAKVGVIVEAVREMLKNHPAIDQRQTLLVYFNQFADSSLNIMVYCFTKTTVWAEWLAAQQDVYLKIIDIVQSHGADFAFPSQTLYMDNITPPEQGR [P0AEB5]”, the “total protein half-life in vivo” value was 6.12 ± 0.49 h under setting [1]; 6.41 ± 0.17 h under setting [2]; 6.48 ± 0.5 h under setting [3]; 6.71 ± 0.27 h under setting [4]; 6.07 ± 0.36 h under setting [5]; 3.02 ± 0.1 h under setting [6]. Also, the “total protein half-life in vivo” value was found to be 6.34 ± 0.4 h under setting [7]; 11.9 ± 0.12 h under setting [12]; 6.02 ± 0.14 h under setting [8]; 12.7 ± 1.4 h under setting [9]; 5.86 ± 0.78 h under setting [10].
Take “MVTSCTGHVLDNQRATTRGVFSSGSHLVTLHFQPHPFFSCVTDAVNGARSRFSAFYPKANYGLQGSQPSDVRAHNRAANGACDEYKQLKVLSMGRQKAVIKARREAKRVLRRDSRSHKQREEESVTSLVQMGGVEAIGMARDSRDTSPILARNEAQLHYLKAIESKQLIFATGEAGCGKTWISAAKAAEALIHKDVDRIIVTRPVLQADEDLGFLPGDIAEKFAPYFRPVYDVLVRRLGASFMQYCLRPEIGKVEIAPFAYMRGRTFENAVVILDEAQNVTAAQMKMFLTRLGENVTVIVNGDITQCDLPRGVCSGLSDALERFEEDEMVGIVRFGKEDCVRSALCQRTLHAYS [P0A9K1]”: the “total protein half-life in vivo” value amounted to 5.82 ± 0.65 h under setting [1]; 1.96 ± 0.059 h under setting [2]; 0.55 ± 0.47 h under setting [3]; 0.666 ± 0.43 h under setting [4]; 0.308 ± 0.011 h under setting [5]; 0.166 ± 0.058 h under setting [6]. The “total protein half-life in vivo” value worked out at 0.347 ± 0.25 h under setting [7]; 0.864 h under setting [12]; 0.735 ± 0.45 h under setting [8]; 0.571 h under setting [9]; 0.355 h under setting [10]; 1.23 ± 0.8 h under setting [11].
As to “MSAQVSLELHHRISQFLFHEASLLDDWKFRDWLAQLDEEIRYTMRTTVNAQTRDRRKGVQPPTTWIFNDTKDQLERRIARLETGMAWAEEPPSRTRHLISNCQISETDIPNVFAVRVNYLLYRAQKERDETFYVGTRFDKVRRLEDDNWRLLERDIVLDQAVITSHNLSVLF”, the “total protein half-life in vivo” value under setting [1] was above 8 h; the “total protein half-life in vivo” value under setting [6] was determined as 2.05 h; the “total protein half-life in vivo” value under setting [7] came out at 5.02 h; the “total protein half-life in vivo” value under setting [12] was 8.73 h; the “total protein half-life in vivo” value under setting [10] worked out at 5.1 ± 0.36 h; the “total protein half-life in vivo” value under setting [11] worked out at 9.68 ± 0.98 h.
In the case of “MTVQDYLLKFRKISSLESLEKLYDHLNYTLTDDQELINMYRAADHRRAELVSGGRLFDLGQVPKSVWHYVQ”, the “total protein half-life in vivo” value under setting [1] came out at 6.59 ± 0.11 h; the “total protein half-life in vivo” value under setting [4] is 5.67 ± 0.55 h; the “total protein half-life in vivo” value under setting [5] was 4.11 ± 0.46 h; the “total protein half-life in vivo” value under setting [8] was 3.59 h; the “total protein half-life in vivo” value under setting [9] came out at 6.7 h; the “total protein half-life in vivo” value under setting [10] worked out at 2.63 h. The “total protein half-life in vivo” value under setting [11] was determined as 6.54 ± 0.37 h.
As to “MSHLDNGFRSLTLQRFPATDDVNPLQAWEAADEYLLQQLDDTEIRGPVLILNDAFGALSCALAEHKPYSIGDSYISELATRENLRLNGIDESSVKFLDSTADYPQQPGVVLIKVPKTLALLEQQLRALRKVVTSDTRIIAGAKARDIHTSTLELFEKVLGPTTTTLAWKKARLINCTFNEPQLADAPQTVSWKLEGTDWTIHNHANVFSRTGLDIGARFFMQHLPENLEGEIVDLGCGNGVIGLTLLDKNPQAKVVFVDESPMAVASSRLNVETNMPEALDRCEFMINNALSGVEPFRFNAVLCNPPFHQQHALTDNVAWEMFHHARRCLKINGELYIVANRHLDYFHKLKKIFGNCTTIATNNKFVVLKAVKLGRRR”, the “total protein half-life in vivo” value is, setting by setting: under setting [1], 5.55 ± 0.53 h; under setting [2], 5.19 ± 0.25 h; under setting [3], 5.29 ± 0.23 h; under setting [4], 5.64 ± 0.14 h; under setting [5], 4.7 ± 0.66 h; under setting [6], 3.05 ± 0.51 h. Further, the “total protein half-life in vivo” value under setting [7] was 5.87 ± 0.088 h; the “total protein half-life in vivo” value under setting [12] amounted to 11.9 ± 1.5 h; the “total protein half-life in vivo” value under setting [8] is 5.175 ± 0.041 h; the “total protein half-life in vivo” value under setting [9] amounted to 8.16 ± 1.4 h; the “total protein half-life in vivo” value under setting [10] was found to be 5.7 h.

The values are drawn from the supplement of paper PMC11246515.
